The target in this experiment is nCFP–CPK3 (Arabidopsis thaliana, UniProt Q42479 1-529). The experiment in a line: split reporter.
nCFP–CPK3, sequence (Q42479 whole entry): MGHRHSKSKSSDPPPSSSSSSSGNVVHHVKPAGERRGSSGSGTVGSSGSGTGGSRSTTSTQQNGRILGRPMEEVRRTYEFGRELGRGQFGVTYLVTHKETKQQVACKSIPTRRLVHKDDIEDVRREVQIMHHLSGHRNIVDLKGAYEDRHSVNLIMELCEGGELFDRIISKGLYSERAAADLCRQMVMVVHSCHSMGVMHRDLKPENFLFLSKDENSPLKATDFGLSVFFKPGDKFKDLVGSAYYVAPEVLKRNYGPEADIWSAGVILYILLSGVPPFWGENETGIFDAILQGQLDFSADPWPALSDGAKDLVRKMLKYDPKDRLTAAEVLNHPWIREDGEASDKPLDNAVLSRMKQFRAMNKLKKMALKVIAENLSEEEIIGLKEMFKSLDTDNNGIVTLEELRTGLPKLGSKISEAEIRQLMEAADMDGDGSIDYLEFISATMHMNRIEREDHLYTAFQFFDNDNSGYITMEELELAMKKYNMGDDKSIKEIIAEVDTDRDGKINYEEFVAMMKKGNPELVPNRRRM

B1: cCFP–TPK1–R35A/R39A (natural protein)
chain: MSSDAARTPLLPTEKIDTMAQDFNLNSRTSSSRKARLRASRSAPRGDCMYNDDVKIDEPPPHPSKIPMFSDLNPNLRRVIMFLALYLTIGTLCFYLVRDQISGHKTSGVVDALYFCIVTMTTVGYGDLVPNSSASRLLACAFVFSGMVLVGHLLSRAADYLVEKQEALLVRAFHLRQSFGPTDILKELHTNKLRYKCYATCLVLVVLFIVGTIFLVMVEKMPVISAFYCVCSTVTTLGYGDKSFNSEAGRLFAVFWILTSSICLAQFFLYVAELNTENKQRALVKWVLTRRITNNDLEAADLDEDGVVGAAEFIVYKLKEMGKIDEKDISGIMDEFEQLDYDESGTLTTSDIVLAQTTSQIQR
For B1, the “BiFC signal relative to wild-type TPK1” value is ~0.5 fold of wild type.

The values are drawn from PMC3971370 (Molecular plant, 2012).
